Numbering of substitutions follows the chain as printed. Blank lines part the entries; values can stand above or below the molecule they belong to.
Legend:
B7-2 on Raji cells = B7-2 on Raji cells (UniProt P42081); test: cell-based or functional assay; parameters: unit not given beside the values
B7-1 on Raji cells = B7-1 on Raji cells (UniProt P33681); test: cell-based or functional assay; parameters: unit not given beside the values
[1] = target: T1, B7-1 coated on the plate of the stability RIA (human, UniProt P33681 35-242); test: stability RIA: 35S-labelled in vitro translated CTLA-4 on a plate coated with B7-1, non-reducing conditions
T1 construct: also called human B7-1 (RnD Systems, 140-B1)
T1 sequence (looked up): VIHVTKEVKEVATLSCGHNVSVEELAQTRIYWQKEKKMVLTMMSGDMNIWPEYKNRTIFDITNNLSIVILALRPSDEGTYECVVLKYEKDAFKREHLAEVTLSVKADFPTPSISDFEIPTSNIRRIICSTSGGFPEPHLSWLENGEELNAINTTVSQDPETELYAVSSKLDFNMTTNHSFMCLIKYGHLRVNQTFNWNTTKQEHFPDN
Experimental: (§1) CTLA-4 variants were screened for stability using the primary stability RIA (radio immunoassay) as described in Jermutus et al., (2001). In brief for each variant a linear DNA template was amplified, transcribed, the mRNA purified on G25 Sephadex® columns and quantified. For each variant in vitro translations in the presence of ³⁵S-labelled methionine were set up in duplicate at 30° C. for 30 min, one in non-reducing conditions and one in 10 mM DTT (dithiothreitol). The translations were stopped with PBS with 0.050 Tween 20, with DTT at the same concentration as the translations. The translation mixture was incubated on a plate coated with B7-1 for 1 hour at room temperature. Plates were washed three times in PBS with 0.05% Tween 20® and three times in PBS. The remaining radioactivity was eluted with 0.1 M triethylamine and quantified by liquid scintillation counting. A measure of the variants' stability was calculated as the percentage residual binding i.e. binding signal in presence of DTT, divided by binding signal in absence of DTT, multiplied by 100.

[2] = target: T1, B7-1 coated on the plate of the …; test: stability RIA: 35S-labelled in vitro translated CTLA-4 on a plate coated with B7-1, 10 mM DTT against no DTT
Experimental: as §1

B7-2 on Raji cells, sequence (P42081 24-329 limits assumed): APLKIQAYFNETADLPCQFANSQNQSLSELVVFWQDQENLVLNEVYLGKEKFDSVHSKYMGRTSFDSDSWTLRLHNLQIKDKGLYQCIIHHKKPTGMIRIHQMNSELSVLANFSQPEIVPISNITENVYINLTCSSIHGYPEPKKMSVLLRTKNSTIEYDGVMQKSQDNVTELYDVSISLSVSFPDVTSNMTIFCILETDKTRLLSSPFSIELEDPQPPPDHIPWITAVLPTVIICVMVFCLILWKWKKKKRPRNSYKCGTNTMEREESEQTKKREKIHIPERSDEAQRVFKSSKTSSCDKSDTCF

Molecule: CTLA-4 human wild-type (SEQ ID NO: 8), CTLA-4-Fc form (from UniProt P16410 37-161) (Fc fusion; in M (unit assumed))
- EC50, inhibition of IL-2 production in the Jurkat and Raji dual cell assay (B7-1 and B7-2 both free) (B7-2 on Raji cells): 1.27e-08
- EC50, inhibition of IL-2 production in the Jurkat and Raji dual cell assay (B7-1 and B7-2 both free) (B7-1 on Raji cells): 1.27e-08

B1: CTLA-4 variant Var 3 (SEQ ID 7), monomeric form with serine at position 121, translated in vitro (receptor)
chain: AMHVAQPAVVLASSRGIASFVCEYAPPGKATEVRVTVLRQADSQVTEVWAATYMMGNESTFPDDSICTGTFSGNQVNLTIRGLRAMDTGLYICEVELMYPPPYYLGIGNGTQIYVIDPEPSPDSD
modifications: 35S-labelled methionine
- Signal DTT- (RIA signal after non-reducing conditions, signal over background) [1]: 13.2 signal over background
- % Residual Binding (signal in 10 mM DTT divided by signal without DTT, times 100) [2]: 75%

More lines, now with the values ahead:

- Signal DTT- (RIA signal after non-reducing conditions, signal over background) [1]: 29.8 signal over background
- % Residual Binding (signal in 10 mM DTT divided by signal without DTT, times 100) [2]: 11%
B2: CTLA-4 variant Var 2 (SEQ ID 6), monomeric form with serine at position 121, translated in vitro (receptor)
chain: B1 chain with S43G, T46S, W49C, P62L
modifications: 35S-labelled methionine

- Signal DTT- (RIA signal after non-reducing conditions, signal over background) [1]: 2.6 signal over background
- % Residual Binding (signal in 10 mM DTT divided by signal without DTT, times 100) [2]: 55%
B3: CTLA-4 variant Var 1 (SEQ ID 5), monomeric form with serine at position 121, translated in vitro (receptor)
chain: B1 chain with I17T, W49Y, F61S, P62L, R81Q
modifications: 35S-labelled methionine

Reference: patent US20100322893A1 (MEDLMMUNE, published 2010)
